According to US20250230247A1 (DREN BIO, published 2025):

T1: human Dectin-1 (biosensor tests of Tables 3, 4A and 9; construct not stated) (human, UniProt Q9BXN2 66-247, limits assumed)
T1 construct: also called hDectin-1
T1 sequence (looked up): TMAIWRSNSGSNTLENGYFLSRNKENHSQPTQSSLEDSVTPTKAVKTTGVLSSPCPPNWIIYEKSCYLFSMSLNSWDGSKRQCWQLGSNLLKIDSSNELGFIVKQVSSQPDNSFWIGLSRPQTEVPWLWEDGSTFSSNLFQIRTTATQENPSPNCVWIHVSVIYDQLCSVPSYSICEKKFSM


Tests used:
[1] = biological target: T1, human Dectin-1 (biosensor tests of …); test: Octet response; as to X = 340: time not given here; as to X = 470: time not given here
[2] = biological target: T1, human Dectin-1 (biosensor tests of …); test: Octet
Method: Variant binding domains were generated, and binding affinity to human Dectin-1 was measured by biosensor (Octet). Single point off rate fits (k off) were determined for each clone and compared to the parental clone (delta), as shown in FIG. 71.
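For delta in this document: Single-point dissociation rate (koff) fit for each variant binding domain, expressed as change versus the parental clone.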

| Binder | X = 340 [1] | X = 470 [1] | delta [2] [%] | X = 290 [1] | X = 350 [1] |
| --- | --- | --- | --- | --- | --- |
| 2M24A.1.1 hFab (Fab, V domains shown, Fab; also called 2M24.1.1) VH: QVQLVQSGAEVKKPGASVKVSCKSSGYTFTAYYIHWVRQAPGQGLEWMGWINPNSGDTNYAQKFQGRITMTRDTSISTAYLELSRLRSDDTAVFYCARNSGSYSFGYWGQGTLVTVSS VL: DIQMTQSPSSVSASVGDRVTITCRASQGISSWLAWYQQKPGKAPKLLIFGASSLQSGVPSRFSGSGSGTDFTLTVSSLQPEDFATYYCQQAASFPFTFGPGTKVDIE | 0.305 | 0.006 | 98 |  |  |
| 2M24A.1.6 hFab (Fab, V domains shown, Fab; also called 2M24.1.6) VH: QVQLVQSGAEVKKPGASVKVSCKSSGYTFTAYYIHWVRQAPGQGLEWMGWINPNSGDTNYAQKFQGRITMTRDTSISTAYLELSRLRSDDTAVFYCARNSGSYSFGYWGQGTLVTVSS VL: DIQMTQSPSSVSASVGDRVTITCRASQGISSWLAWYQQKPGKAPKLLIFGASSLQSGVPSRFSGSGSGTDFTLTVSSLQPEDFATYYCQQAFSFPFTFGPGTKVDIE | 0.493 | 0.39 | 21 |  |  |
| 2M24A.1.12 hFab (Fab, V domains shown, Fab; also called 2M24.1.12) VH: QVQLVQSGAEVKKPGASVKVSCKSSGYTFTDYYIHWVRQAPGQGLEWMGWINPNSGATNYAQKFQGRITMTRDTSISTAYLELSRLRSDDTAVFYCARNSGSYSFGYWGQGTLVTVSS VL: DIQMTQSPSSVSASVGDRVTITCRASQGISSWLAWYQQKPGKAPKLLIFGASSLQSGVPSRFSGSGSGTDFTLTVSSLQPEDFATYYCQQAYSFPFTFGPGTKVDIE | 0.49 | 0.399 | 19 |  |  |
| 2M24A.1.11 hFab (Fab, V domains shown, Fab; also called 2M24.1.11) VH: QVQLVQSGAEVKKPGASVKVSCKSSGYTFTAYYIHWVRQAPGQGLEWMGWINPNSGDTNYAQKFQGRITMTRDTSISTAYLELSRLRSDDTAVFYCARNSGSYSFGYWGQGTLVTVSS VL: DIQMTQSPSSVSASVGDRVTITCRASQGISSWLAWYQQKPGKAPKLLIFGASSLQSGVPSRFSGSGSGTDFTLTVSSLQPEDFATYYCQQAYSFPFTFGPGTKVDIE | 0.499 | 0.418 | 16 |  |  |
| 2M24A.1.4 hFab (Fab, V domains shown, Fab; also called 2M24.1.4) VH: QVQLVQSGAEVKKPGASVKVSCKSSGYTFTDYYIHWVRQAPGQGLEWMGWINPNSGDTNYAQKFQGRITMTRDTSISTAYLELSRLRSDDTAVFYCARNSGSASFGYWGQGTLVTVSS VL: DIQMTQSPSSVSASVGDRVTITCRASQGISSWLAWYQQKPGKAPKLLIFGASSLQSGVPSRFSGSGSGTDFTLTVSSLQPEDFATYYCQQAASFPFTFGPGTKVDIE | 0 | 0 |  |  |  |
| 2M24A.1.5 hFab (Fab, V domains shown, Fab; also called 2M24.1.5) VH: QVQLVQSGAEVKKPGASVKVSCKSSGYTFTDYYIHWVRQAPGQGLEWMGWINPNSGDTNYAQKFQGRITMTRDTSISTAYLELSRLRSDDTAVFYCARNSGSYSFGYWGQGTLVTVSS VL: DIQMTQSPSSVSASVGDRVTITCRASQGISSWLAWYQQKPGKAPKLLIFGASSLQSGVPSRFSGSGSGTDFTLTVSSLQPEDFATYYCQQAASFPFTFGPGTKVDIE | 0.3 | 0.014 | 95 |  |  |
| 2M24A.1.7 hFab (Fab, V domains shown, Fab; also called 2M24.1.7) VH: QVQLVQSGAEVKKPGASVKVSCKSSGYTFTDYYIHWVRQAPGQGLEWMGWINPNSGATNYAQKFQGRITMTRDTSISTAYLELSRLRSDDTAVFYCARNSGSYSFGYWGQGTLVTVSS VL: DIQMTQSPSSVSASVGDRVTITCRASQGISSWLAWYQQKPGKAPKLLIFGASSLQSGVPSRFSGSGSGTDFTLTVSSLQPEDFATYYCQQAFSFPFTFGPGTKVDIE | 0.51 | 0.398 | 22 |  |  |
| 2M24A.1.8 hFab (Fab, V domains shown, Fab; also called 2M24.1.8) VH: QVQLVQSGAEVKKPGASVKVSCKSSGYTFTDYYIHWVRQAPGQGLEWMGWINPNSGDTNYAQKFQGRITMTRDTSISTAYLELSRLRSDDTAVFYCARASGSYSFGYWGQGTLVTVSS VL: DIQMTQSPSSVSASVGDRVTITCRASQGISSWLAWYQQKPGKAPKLLIFGASSLQSGVPSRFSGSGSGTDFTLTVSSLQPEDFATYYCQQAFSFPFTFGPGTKVDIE | 0.042 | 0 | 100 |  |  |
| 2M24A.1.2 hFab (Fab, V domains shown, Fab; also called 2M24.1.2) VH: QVQLVQSGAEVKKPGASVKVSCKSSGYTFTDYYIHWVRQAPGQGLEWMGWINPNSGATNYAQKFQGRITMTRDTSISTAYLELSRLRSDDTAVFYCARNSGSYSFGYWGQGTLVTVSS VL: DIQMTQSPSSVSASVGDRVTITCRASQGISSWLAWYQQKPGKAPKLLIFGASSLQSGVPSRFSGSGSGTDFTLTVSSLQPEDFATYYCQQAASFPFTFGPGTKVDIE | 0.331 | 0.006 | 98 |  |  |
| 2M24A.1.3 hFab (Fab, V domains shown, Fab; also called 2M24.1.3) VH: QVQLVQSGAEVKKPGASVKVSCKSSGYTFTDYYIHWVRQAPGQGLEWMGWINPNSGDTNYAQKFQGRITMTRDTSISTAYLELSRLRSDDTAVFYCARASGSYSFGYWGQGTLVTVSS VL: DIQMTQSPSSVSASVGDRVTITCRASQGISSWLAWYQQKPGKAPKLLIFGASSLQSGVPSRFSGSGSGTDFTLTVSSLQPEDFATYYCQQAASFPFTFGPGTKVDIE | 0 | 0 |  |  |  |
| 2M24A.1.10 hFab (Fab, V domains shown, Fab; also called 2M24.1.10) VH: QVQLVQSGAEVKKPGASVKVSCKSSGYTFTDYYIHWVRQAPGQGLEWMGWINPNSGDTNYAQKFQGRITMTRDTSISTAYLELSRLRSDDTAVFYCARNSGSYSFGYWGQGTLVTVSS VL: DIQMTQSPSSVSASVGDRVTITCRASQGISSWLAWYQQKPGKAPKLLIFGASSLQSGVPSRFSGSGSGTDFTLTVSSLQPEDFATYYCQQAFSFPFTFGPGTKVDIE | 0.49 | 0.402 | 18 |  |  |
| 2M24A.1.13 hFab (Fab, V domains shown, Fab; also called 2M24.1.13) VH: QVQLVQSGAEVKKPGASVKVSCKSSGYTFTDYYIHWVRQAPGQGLEWMGWINPNSGDTNYAQKFQGRITMTRDTSISTAYLELSRLRSDDTAVFYCARASGSYSFGYWGQGTLVTVSS VL: DIQMTQSPSSVSASVGDRVTITCRASQGISSWLAWYQQKPGKAPKLLIFGASSLQSGVPSRFSGSGSGTDFTLTVSSLQPEDFATYYCQQAYSFPFTFGPGTKVDIE | 0.028 | 0 | 100 |  |  |

More lines, now with the values ahead:

| X = 340 [1] | X = 470 [1] | delta [2] [%] | X = 290 [1] | X = 350 [1] | Binder |
| --- | --- | --- | --- | --- | --- |
|  |  | 15 | 0.131 | 0.112 | 2M24A.1.22 (Fab, V domains shown, Fab; also called 2M24.1.22) VH: QVQLVQSGAEVKKPGASVKVSCKSSGYTFTDYYIHWVRQAPGQGLEWMGWINPNSGDTNYAQKFQGRITMTRDTSISTAYLELSRLRSDDTAVFYCARNSGSYSFGAWGQGTLVTVSS VL: DIQMTQSPSSVSASVGDRVTITCRASQGISSWLAWYQQKPGKAPKLLIFGASSLQSGVPSRFSGSGSGTDFTLTVSSLQPEDFATYYCQQAYSFPFTFGPGTKVDIE |
|  |  | 78 | 0.0981 | 0.0215 | 2M24A.1.20 (Fab, V domains shown, Fab; also called 2M24.1.20) VH: QVQLVQSGAEVKKPGASVKVSCKSSGYTFTDYYIHWVRQAPGQGLEWMGWINPNSGDTNYAQKFQGRITMTRDTSISTAYLELSRLRSDDTAVFYCARNSGSYSAGYWGQGTLVTVSS VL: DIQMTQSPSSVSASVGDRVTITCRASQGISSWLAWYQQKPGKAPKLLIFGASSLQSGVPSRFSGSGSGTDFTLTVSSLQPEDFATYYCQQAYSFPFTFGPGTKVDIE |
|  |  | 8 | 0.125 | 0.114 | 2M24A.1.21 (Fab, V domains shown, Fab; also called 2M24.1.21) VH: QVQLVQSGAEVKKPGASVKVSCKSSGYTFTDYYIHWVRQAPGQGLEWMGWINPNSGDTNYAQKFQGRITMTRDTSISTAYLELSRLRSDDTAVFYCARNSGSYSFAYWGQGTLVTVSS VL: DIQMTQSPSSVSASVGDRVTITCRASQGISSWLAWYQQKPGKAPKLLIFGASSLQSGVPSRFSGSGSGTDFTLTVSSLQPEDFATYYCQQAYSFPFTFGPGTKVDIE |
|  |  | 9 | 0.138 | 0.124 | 2M24A.1.18 (Fab, V domains shown, Fab; also called 2M24.1.18) VH: QVQLVQSGAEVKKPGASVKVSCKSSGYTFTDYYIHWVRQAPGQGLEWMGWINPNSGDTNYAQKFQGRITMTRDTSISTAYLELSRLRSDDTAVFYCARNSGAYSFGYWGQGTLVTVSS VL: DIQMTQSPSSVSASVGDRVTITCRASQGISSWLAWYQQKPGKAPKLLIFGASSLQSGVPSRFSGSGSGTDFTLTVSSLQPEDFATYYCQQAYSFPFTFGPGTKVDIE |
|  |  | 5 | 0.12 | 0.114 | 2M24A.1.16 (Fab, V domains shown, Fab; also called 2M24.1.16) VH: QVQLVQSGAEVKKPGASVKVSCKSSGYTFTDYYIHWVRQAPGQGLEWMGWINPNSGDTNYAQKFQGRITMTRDTSISTAYLELSRLRSDDTAVFYCARNAGSYSFGYWGQGTLVTVSS VL: DIQMTQSPSSVSASVGDRVTITCRASQGISSWLAWYQQKPGKAPKLLIFGASSLQSGVPSRFSGSGSGTDFTLTVSSLQPEDFATYYCQQAYSFPFTFGPGTKVDIE |
|  |  | 1 | 0.131 | 0.129 | 2M24A.1.17 (Fab, V domains shown, Fab; also called 2M24.1.17) VH: QVQLVQSGAEVKKPGASVKVSCKSSGYTFTDYYIHWVRQAPGQGLEWMGWINPNSGDTNYAQKFQGRITMTRDTSISTAYLELSRLRSDDTAVFYCARNSASYSFGYWGQGTLVTVSS VL: DIQMTQSPSSVSASVGDRVTITCRASQGISSWLAWYQQKPGKAPKLLIFGASSLQSGVPSRFSGSGSGTDFTLTVSSLQPEDFATYYCQQAYSFPFTFGPGTKVDIE |
|  |  | 22 | 0.126 | 0.0983 | 2M24A.1.19 (Fab, V domains shown, Fab; also called 2M24.1.19) VH: QVQLVQSGAEVKKPGASVKVSCKSSGYTFTDYYIHWVRQAPGQGLEWMGWINPNSGDTNYAQKFQGRITMTRDTSISTAYLELSRLRSDDTAVFYCARNSGSYAFGYWGQGTLVTVSS VL: DIQMTQSPSSVSASVGDRVTITCRASQGISSWLAWYQQKPGKAPKLLIFGASSLQSGVPSRFSGSGSGTDFTLTVSSLQPEDFATYYCQQAYSFPFTFGPGTKVDIE |
